Entries after “also recorded” stand apart in the source; their conditions may differ.
Columns and labels:
Wistar rats = experiment: Acute toxicity test after intravenous and intraperitoneal administration in the rat (Example 5); format: in vivo; details: male Wistar rats, intravenous injection
Procedure: Species: Wistar rats RjHan: Wi (free of specific pathogens)
Number and sex and Weight: 6 healthy adult rats (males), average weight 300 g
3 groups of male rats: • Group 1 (“G5”): 2 rats (1 and 2) receiving 0.1 ml of labeled solution of dendrimer alone, one via intravenous administration, the other intraperitoneally 1 • Group 2 (“G5-HLS”): 2 rats (3 and 4) receiving 0.1 ml of the solution of the test item “G5 dendrimer {1-nitro-1H-imidazole-methyl -1,2,3-triazol-methyl-di(2-pycolyl)amine}”, one via intravenous administration, the other intraperitoneally • Group 3 (“HLS”): 2 rats (n ° 4 and 5) receiving 0.1 ml of the labeled 1-nitro-1H-imidazole-methyl -1,2,3-triazole-methyl-di-(2-pycolyl) amine, one via intravenous administration, the other intraperitoneally

[1] = Biodistribution after intravenous (intravascular) administration in the rat (Example 5); format: in vivo
Source text: (§1) The removed organs (brain, kidney, liver, heart, intestine, lung, gonads, blood, urine) were weighed and their activities were counted on NaI gamma camera.

[2] = Biodistribution after in situ direct intrahepatic injection in the rat (Example 6); format: in vivo
Procedure: They were autopsied and major organs were observed macroscopically.
as §1
The assessment of radioactivity was carried out on the various organs and the carcass alone, urine and whole blood.
FIG. 6 is a scintigraphic image of biodistribution after injection: it will be noted that only the liver, stomach and intestines are discernible.

humans = details: 1.3 GBq (35 mCi) dose; cited from earlier work

Dendrimer G5 {1-nitro-1H-Imidazole-methyl-1,2,3-triazol-methyl-di-(2-pycolyl)amine}
precipitation or thrombus formation at the injection site (Wistar rats): no precipitation was observed or thrombus formation
liver binding after intravascular administration [1]: 1.53 % DIg
retention at the site of introduction ([2]; male rat, laparotomy and direct injection into a liver segment, listed as dendrimer conjugate): remains almost stable at the site of introduction; also recorded: has not moved a lot from the site of its deposition
hepatic binding rate ([2]; rat, direct intrahepatic injection, sacrifice at 60 min, 99mTc-labelled): 53.7%
biodistribution outside the targeted site ([2]; rat, in situ administration at a hepatic lobe, scintigraphy (FIG. 6)): negligible
initial injected dose by hepatic mass charged with the test item ([2]; rat, in situ intrahepatic injection, liver): 33.5 % DIg

rhenium-188 hydroxyethylidene diphosphonate
systemic toxicity in humans (humans): no significant toxicity
